{"source": "patent US20090123934A1", "about": "(published 2009)", "molecules": {"B1": {"name": "Flag-Mtrm (other)", "chain": "MENSRTPTNKTKITLNRTPTLKERRWNTLKVNTSNVRCSTPIFGNFRSPNLSPIENMGTKGKSPVSPMRFATFKKVPTKVHPKQQQQQQHQHCHRTQLKPPPFVLPKPQEEIIEPEREIKSCSSPDTCSDDSNMETSLALESRRRSIKASNHSYVVNHAANVEQILMHMGLENYVTNFEEAHIDLVELASLERADLVKIGLNTDEDCNRIMDVLHTL", "notes": "Expressed with baculovirus in Sf9 cells; also called Mtrm with a Flag tag at the N-terminus; not shown: N-terminal Flag tag"}, "B2": {"name": "C-terminally 3×FLAG-tagged Mtrm (other)", "chain": "B1 chain", "modifications": "phosphorylation detected on T40, S124 (less reproducibly), S48, S52 and S137", "notes": "Expressed in ovaries under nanos-GAL4 in a wild-type background; purified on anti-FLAG beads for MudPIT; also called Mtrm-Flag(3×); Mtrm-FLAG (3×); not shown: C-terminal 3×FLAG tag"}, "B3": {"name": "Mtrm with both PBD binding sites mutated (T(40)A and S(124)A) (other)", "chain": "B1 chain with T40A, S124A"}}, "key": {"[1]": {"biological_target": "wildtype PoloBD-fusion protein (Drosophila melanogaster) (UniProt P52304)", "test": "yeast two-hybrid, serial dilutions"}, "[2]": {"biological_target": "T1, HA-Polo (Drosophila melanogaster, UniProt P52304 1-576)", "T1 construct": "Expressed with baculovirus in Sf9 cells; also called Polo with a 2XHA tag at the N-terminus; not shown: N-terminal 2XHA tag", "T1 sequence (looked up)": "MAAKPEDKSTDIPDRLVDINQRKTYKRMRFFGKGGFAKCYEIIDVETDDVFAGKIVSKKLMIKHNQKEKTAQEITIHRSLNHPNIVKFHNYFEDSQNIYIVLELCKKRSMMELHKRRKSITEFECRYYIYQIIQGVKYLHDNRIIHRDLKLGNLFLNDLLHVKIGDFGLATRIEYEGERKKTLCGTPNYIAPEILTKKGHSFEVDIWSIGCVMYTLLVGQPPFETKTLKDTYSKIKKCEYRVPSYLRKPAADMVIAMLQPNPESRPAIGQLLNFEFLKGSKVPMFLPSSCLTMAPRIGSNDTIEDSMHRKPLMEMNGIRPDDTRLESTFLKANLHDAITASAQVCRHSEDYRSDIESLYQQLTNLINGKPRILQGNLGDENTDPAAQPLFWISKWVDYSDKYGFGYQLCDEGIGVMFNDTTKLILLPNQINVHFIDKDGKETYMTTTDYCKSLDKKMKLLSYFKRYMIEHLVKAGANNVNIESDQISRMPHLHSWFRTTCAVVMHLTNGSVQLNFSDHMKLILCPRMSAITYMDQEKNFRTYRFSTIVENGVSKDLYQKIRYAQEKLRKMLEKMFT", "test": "purified Flag-Mtrm incubated with HA-Polo, immunoprecipitated with anti-Mtrm antibody, anti-HA Western blot (FIG. 18)", "experimental": "Protein from affinity-purified Flag-Mtrm and HA-Polo was used for an in vitro binding experiment. 50 μg Flag-Mtrm was mixed with the same amount of HA-Polo in 60 μl of the above buffer and incubated for 1 hr at 30° C. As a control, 50 μg HA-Polo in 60 μl was also incubated. After incubation, both protein samples were immunoprecipitated using 50 μl protein A agarose beads coated with anti-Mtrm antibody (from guinea pig) for 1 hr at 4° C. The agarose beads were washed 6 times with the above protein buffer.\nFor Western blotting, the beads were suspended in 40 μl of SDS loading buffer (50 mM Tris-HCl (pH 6.8), 100 mM DTT, 2% SDS, 0.1% bromophenol blue, 10% glycerol) and heated for 3 min at 95° C. before being loaded on a PAGE gel. Western blotting for HA-Polo was conducted using anti-HA antibody from mouse and an Alkaline Phosphatase chromogen kit (BCIP/NBT) (Roche). (FIG. 18)."}, "[3]": {"biological_target": "T2, Polo kinase (Polo) (Drosophila melanogaster, UniProt P52304 1-576, T182 detected as phosphorylated (over 80%) in Polo bound to Mtrm)", "T2 construct": "Endogenous Polo in ovary extracts; also called polo (FBgn0003124)", "T2 sequence (looked up)": "T1 sequence (looked up)", "test": "anti-FLAG affinity purification from ovarian extracts, MudPIT mass spectrometry, three replicates", "text": "We analyzed three independent affinity purifications from ovarian extracts expressing a C-terminally 3×FLAG-tagged Mtrm and used MudPIT mass spectrometry to identify interacting proteins. We then compared the identified proteins to those detected in five control FLAG immuno-precipitations from control (w¹¹¹⁸) flies.\nIn order to prepare a C-terminally 3×FLAG-tagged Mtrm for the MudPIT mass spectrometry assay, the UASP-mtrm-Flag (3×) construct was expressed in ovaries under the control of the nanos-GAL4 driver in a wild-type background. The extraction of protein from the ovaries was the same as described above. 100 μl of anti-FLAG beads were washed 2 times with pre-chilled 1×PBS and then 2 times with pre-chilled ovary extract buffer. The anti-FLAG beads were mixed with the extract supernatant, incubated and washed as described above. After washing, the beads bound with Mtrm-FLAG (3×) were finally transferred to a mini-column and washed with 25 ml of TBS (50 mM Tris-HCl, pH 7.4, 150 mM NaCl) at 4° C. When washing was completed, 300 μl TBS with 100 μg/ml 3×FLAG peptide was added to elute proteins. TCA was added to the eluted protein solution at a final concentration of 20%. The solution was mixed and kept on ice for at least 30 minutes. The solution was centrifuged at 14000 rpm at 4° C. for 15 minutes. […] The pellet was air dried and ready for the Mud PIT spectrometry analysis."}, "[4]": {"biological_target": "T2, Polo kinase (Polo)", "test": "co-immunoprecipitation, ovary extracts", "experimental": "To prepare the ovary extract for immunoprecipitation, ovaries from 100 yeast-fed female flies were dissected in 1×PBS. The ovaries were homogenized in an Eppendorf tube at 4° C. by a small pestle in 0.5 ml of ovary extract buffer containing 25 mM Hepes (pH 6.8), 50 mM KCl, 1 mM MgCl₂, 1 mM DTT and 125 mM sucrose with protease inhibitors cocktail (Calbiochem). The extract was centrifuged at 14000×g for 15 minutes at 4° C. and the supernatant was collected.\nProtein A agarose beads were used for binding polyclonal antibodies from rabbit and guinea pig. Protein G agarose beads were used for binding monoclonal antibody from mouse. 50 ul of protein A or G-coated agarose was washed three times with PBST (PBS+0.1% Triton X-100). 10 ul of antibody was added to the beads in a final volume of 500 ul of PBS and mixed on a shaker for 1 hour at 4° C. The beads then were washed twice with PBST. The ovary extract was immunoprecipitated with the beads for 1 hour at 4° C. with continual shaking. After recovery by centrifugation at 1000×g for 3 minutes, the beads were washed 4 times with the cold ovary extract buffer with protease inhibitors, for 5 minutes each. For Western blotting, the beads were suspended in 30 μl of SDS loading buffer (50 mM Tris-HCl (pH 6.8), 100 mM DTT, 2% SDS, 0.1% bromophenol blue, 10% glycerol) and heated for 3 minutes at 95° C. before being loaded on a PAGE gel. […]"}}, "note": "Substitutions are numbered along the chain they refer to."}
{"molecule": "MtrmT(40)A mutant MtrmAD-fusion protein (from UniProt Q23973 1-217)", "values": [{"measurement": "colonies at the third serial dilution", "setting": "[1]", "result": 1, "unit": "colonies"}, {"measurement": "colonies following the first serial dilution", "setting": "[1]", "result": 7, "unit": "colonies"}]}
{"molecule": "B1", "values": [{"measurement": "binding result", "setting": "[2]", "result": "binds"}]}
{"molecule": "B2", "values": [{"measurement": "ratio between the two proteins (NSAF)", "setting": "[3]", "result": "0.96 ratio of NSAF values"}]}
{"molecule": "B3", "values": [{"measurement": "binding result", "setting": "[4]", "result": "no binding"}]}
